Reference: patent US20230059690A1 (published 2023)

B1: cHv75-2a7.G1(C99Y;L328C)k (antibody, V domains shown)
VH: EVQLVESGGGLVQPGGSLRLSCAASGITFSNYWMSWVRQAPGKGLEWVANIKKDGSEKFYVDSVKGRFTISRDNAKNSLYLQINSLRAEDTAMYYCAREIQLYLQHWGQGTLVTVSS
VL: DIQMTQSPSSVSASVGGRVTITCRASQGISNWLAWYQQKPGKAPKLLIYAASSLQSGVPSRFSGSGSGTDFTLTISNLQPEDFASYYCQQANSFPLTFGGGTKVEIKR
B2: cHv75-2a11.G1(L328C)k (antibody, V domains shown)
VH: QVQLVESGGGVVQPGRSLRLSCAASGFTFSSYDMHWVRQAPGKGLEWVAVIWYDGSNKYYADSLKGRFTISRDNSKNTLYLQMNSLRAEDTAVYYCARVIAARTFYYYGMDVWGQGTTVTVSS
VL: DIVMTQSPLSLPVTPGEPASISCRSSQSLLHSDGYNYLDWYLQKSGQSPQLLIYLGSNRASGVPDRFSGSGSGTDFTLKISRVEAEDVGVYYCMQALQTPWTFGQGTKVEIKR

Experiments:
[1] = target: T1, human PSMA (human, UniProt Q04609 44-750); assay: SPR
T1 sequence (Q04609 44-750): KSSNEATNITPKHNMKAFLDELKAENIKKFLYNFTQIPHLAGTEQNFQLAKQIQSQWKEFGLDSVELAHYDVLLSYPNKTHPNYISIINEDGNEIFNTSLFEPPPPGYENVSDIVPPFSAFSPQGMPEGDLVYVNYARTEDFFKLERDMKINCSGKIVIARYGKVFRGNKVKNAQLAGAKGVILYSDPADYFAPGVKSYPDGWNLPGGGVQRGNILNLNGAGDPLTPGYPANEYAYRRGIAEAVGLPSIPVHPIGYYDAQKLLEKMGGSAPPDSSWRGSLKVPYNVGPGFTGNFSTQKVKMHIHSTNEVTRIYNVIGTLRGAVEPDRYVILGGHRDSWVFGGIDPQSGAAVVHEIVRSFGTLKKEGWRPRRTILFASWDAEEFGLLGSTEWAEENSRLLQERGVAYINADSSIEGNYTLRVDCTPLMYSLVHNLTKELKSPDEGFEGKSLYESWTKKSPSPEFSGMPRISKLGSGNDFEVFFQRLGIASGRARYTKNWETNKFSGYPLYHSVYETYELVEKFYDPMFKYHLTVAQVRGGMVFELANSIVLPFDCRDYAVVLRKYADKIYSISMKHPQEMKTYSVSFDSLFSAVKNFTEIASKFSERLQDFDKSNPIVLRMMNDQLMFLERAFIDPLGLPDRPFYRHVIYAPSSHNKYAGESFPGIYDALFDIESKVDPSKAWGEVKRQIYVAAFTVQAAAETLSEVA

[2] = target: T2, cynomolgus monkey PSMA (cynomolgus monkey, UniProt A0A2K5VNZ0 44-750); assay: SPR
T2 chain: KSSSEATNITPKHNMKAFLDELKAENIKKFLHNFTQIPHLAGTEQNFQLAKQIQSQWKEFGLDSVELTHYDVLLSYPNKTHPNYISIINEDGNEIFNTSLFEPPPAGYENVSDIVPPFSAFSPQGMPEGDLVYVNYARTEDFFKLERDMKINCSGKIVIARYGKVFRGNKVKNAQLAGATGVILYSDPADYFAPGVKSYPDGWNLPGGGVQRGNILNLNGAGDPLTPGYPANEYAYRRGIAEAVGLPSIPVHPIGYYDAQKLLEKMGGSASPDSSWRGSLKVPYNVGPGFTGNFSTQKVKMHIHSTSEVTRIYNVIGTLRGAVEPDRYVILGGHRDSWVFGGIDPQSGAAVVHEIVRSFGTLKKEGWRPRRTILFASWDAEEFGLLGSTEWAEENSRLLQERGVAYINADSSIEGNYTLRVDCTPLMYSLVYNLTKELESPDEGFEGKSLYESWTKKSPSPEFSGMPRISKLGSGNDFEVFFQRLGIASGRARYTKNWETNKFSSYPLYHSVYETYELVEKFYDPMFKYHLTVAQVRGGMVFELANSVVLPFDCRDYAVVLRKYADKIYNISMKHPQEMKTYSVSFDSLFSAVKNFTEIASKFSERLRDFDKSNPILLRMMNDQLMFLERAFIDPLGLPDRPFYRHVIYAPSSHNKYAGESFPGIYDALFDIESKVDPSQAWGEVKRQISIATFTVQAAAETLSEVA

[3] = target: T1, human PSMA; assay: ELISA
[4] = target: T2, cynomolgus monkey PSMA; assay: ELISA
[5] = target: T2, cynomolgus monkey PSMA; assay: FACS; CHO-cyno PSMA cells
[6] = target: T1, human PSMA; assay: FACS; Rat1(e) hPSMA cells, lot RC6589
[7] = target: T1, human PSMA; assay: FACS; CHO-human PSMA cells
[8] = target: T1, human PSMA; assay: FACS; Rat1(e) hPSMA cells, lot RC6647

Row | Binder | Kd [1] | Kd [2] | Kd [3] | Kd [4] | Kd [5] | Kd [6] | Kd [7] | Kd [8]
1 | B1 | 11 nM | 36 nM | 0.074 nM | 0.063 nM | 0.166 nM | 0.205 nM | 0.094 nM | –
2 | B2 | 59 nM | 47 nM | 0.138 nM | 0.104 nM | 0.431 nM | – | 0.709 nM | 0.761 nM
